Experiments:
[1] = target: T1, MICALMO-CH (mMICAL-1 residues 2-615) (Mus musculus, UniProt Q8VDP3, Q78K); assay: X-ray crystallography, […] and […] Å; type: binding; conditions: oxidised FAD in the MO domain; two crystal forms
T1 construct: gene Mical1; MO plus CH domains, residues 2-615, Q78K to remove a protease site; extra Gly from vector; N-terminal His-tag removed with TEV; E. coli BL21, codon-optimised
T1 sequence (Q8VDP3 2-615 Q78K): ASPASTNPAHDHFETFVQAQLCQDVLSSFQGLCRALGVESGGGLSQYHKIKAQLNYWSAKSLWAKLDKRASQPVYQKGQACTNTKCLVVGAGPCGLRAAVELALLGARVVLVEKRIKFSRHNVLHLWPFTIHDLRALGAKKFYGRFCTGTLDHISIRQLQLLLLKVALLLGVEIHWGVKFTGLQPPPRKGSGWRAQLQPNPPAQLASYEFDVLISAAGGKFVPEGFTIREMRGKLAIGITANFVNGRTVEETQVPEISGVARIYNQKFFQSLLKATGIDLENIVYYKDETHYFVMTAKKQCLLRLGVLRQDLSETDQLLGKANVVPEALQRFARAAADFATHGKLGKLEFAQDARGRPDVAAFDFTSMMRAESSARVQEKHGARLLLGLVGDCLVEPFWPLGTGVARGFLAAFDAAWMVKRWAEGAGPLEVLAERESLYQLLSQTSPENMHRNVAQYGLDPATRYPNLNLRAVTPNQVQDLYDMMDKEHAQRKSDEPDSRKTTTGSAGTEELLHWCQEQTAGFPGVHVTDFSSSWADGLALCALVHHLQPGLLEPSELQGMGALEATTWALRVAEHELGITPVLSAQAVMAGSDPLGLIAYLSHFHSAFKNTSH

purified protein = substrate: NC(=O)C1=CN([C@@H]2O[C@H](COP(=O)(O)OP(=O)(O)OC[C@H]3O[C@@H](n4cnc5c(N)ncnc54)[C@H](OP(=O)(O)O)[C@@H]3O)[C@@H](O)[C@H]2O)C=CC1; assay: purified protein; type: biochemical, Mus musculus; conditions: no F-actin, O2 as acceptor, 5 mM Tris-HCl pH 8.0, 50 mM KCl, 2 mM MgCl2, 0.2 mM CaCl2, 0.5 mM DTT, 1 mM ATP, 600 nM enzyme

With `Cc1cc2nc3c(=O)[nH]c(=O)nc-3n(C[C@H](O)[C@H](O)[C@H](O)COP(=O)(O)OP(=O)(O)OC[C@H]3O[C@@H](n4cnc5c(N)ncnc54)[C@H](O)[C@@H]3O)c2cc1C` [FAD] the “X-ray crystallography, 2.31 and 2.88 Å” value [1] was “In both crystal forms the FAD cofactor is oxidized and accessible through two openings”.

B1: MICALMO-CH (mMICAL-1 residues 2-615) (Mus musculus; Q78K) (protein)
chain: ASPASTNPAHDHFETFVQAQLCQDVLSSFQGLCRALGVESGGGLSQYHKIKAQLNYWSAKSLWAKLDKRASQPVYQKGQACTNTKCLVVGAGPCGLRAAVELALLGARVVLVEKRIKFSRHNVLHLWPFTIHDLRALGAKKFYGRFCTGTLDHISIRQLQLLLLKVALLLGVEIHWGVKFTGLQPPPRKGSGWRAQLQPNPPAQLASYEFDVLISAAGGKFVPEGFTIREMRGKLAIGITANFVNGRTVEETQVPEISGVARIYNQKFFQSLLKATGIDLENIVYYKDETHYFVMTAKKQCLLRLGVLRQDLSETDQLLGKANVVPEALQRFARAAADFATHGKLGKLEFAQDARGRPDVAAFDFTSMMRAESSARVQEKHGARLLLGLVGDCLVEPFWPLGTGVARGFLAAFDAAWMVKRWAEGAGPLEVLAERESLYQLLSQTSPENMHRNVAQYGLDPATRYPNLNLRAVTPNQVQDLYDMMDKEHAQRKSDEPDSRKTTTGSAGTEELLHWCQEQTAGFPGVHVTDFSSSWADGLALCALVHHLQPGLLEPSELQGMGALEATTWALRVAEHELGITPVLSAQAVMAGSDPLGLIAYLSHFHSAFKNTSH
notes: MO plus CH domains, residues 2-615, Q78K to remove a protease site; extra Gly from vector; N-terminal His-tag removed with TEV; E. coli BL21, codon-optimised
For B1, the Km (purified protein) was 37.7 ± 8.4 µM and the kcat (purified protein) was 1.7 ± 0.5 s⁻¹.

B2: MICALMO (mouse MICAL-1 MO domain, residues 1-484) (Mus musculus) (protein)
chain: MASPASTNPAHDHFETFVQAQLCQDVLSSFQGLCRALGVESGGGLSQYHKIKAQLNYWSAKSLWAKLDKRASQPVYQQGQACTNTKCLVVGAGPCGLRAAVELALLGARVVLVEKRIKFSRHNVLHLWPFTIHDLRALGAKKFYGRFCTGTLDHISIRQLQLLLLKVALLLGVEIHWGVKFTGLQPPPRKGSGWRAQLQPNPPAQLASYEFDVLISAAGGKFVPEGFTIREMRGKLAIGITANFVNGRTVEETQVPEISGVARIYNQKFFQSLLKATGIDLENIVYYKDETHYFVMTAKKQCLLRLGVLRQDLSETDQLLGKANVVPEALQRFARAAADFATHGKLGKLEFAQDARGRPDVAAFDFTSMMRAESSARVQEKHGARLLLGLVGDCLVEPFWPLGTGVARGFLAAFDAAWMVKRWAEGAGPLEVLAERESLYQLLSQTSPENMHRNVAQYGLDPATRYPNLNLRAVTPNQVQDLYD
notes: isolated N-terminal FAD monooxygenase domain, residues 1-484 of 1048
B2 gave a Km (purified protein) of 28.8 ± 2.2 µM and a kcat (purified protein) of 0.68 ± 0.02 s⁻¹.
